Measurements from article doi:10.1101/321604.
pKd: −log10 of the molar value.

Biological target: mUHRF1 C-terminally tagged with GFP- and 6xHis-tag (mouse) (UniProt Q8VDF2)
Assay: MST

Chain of UniProt Q8VDF2 (Q8VDF2 whole entry): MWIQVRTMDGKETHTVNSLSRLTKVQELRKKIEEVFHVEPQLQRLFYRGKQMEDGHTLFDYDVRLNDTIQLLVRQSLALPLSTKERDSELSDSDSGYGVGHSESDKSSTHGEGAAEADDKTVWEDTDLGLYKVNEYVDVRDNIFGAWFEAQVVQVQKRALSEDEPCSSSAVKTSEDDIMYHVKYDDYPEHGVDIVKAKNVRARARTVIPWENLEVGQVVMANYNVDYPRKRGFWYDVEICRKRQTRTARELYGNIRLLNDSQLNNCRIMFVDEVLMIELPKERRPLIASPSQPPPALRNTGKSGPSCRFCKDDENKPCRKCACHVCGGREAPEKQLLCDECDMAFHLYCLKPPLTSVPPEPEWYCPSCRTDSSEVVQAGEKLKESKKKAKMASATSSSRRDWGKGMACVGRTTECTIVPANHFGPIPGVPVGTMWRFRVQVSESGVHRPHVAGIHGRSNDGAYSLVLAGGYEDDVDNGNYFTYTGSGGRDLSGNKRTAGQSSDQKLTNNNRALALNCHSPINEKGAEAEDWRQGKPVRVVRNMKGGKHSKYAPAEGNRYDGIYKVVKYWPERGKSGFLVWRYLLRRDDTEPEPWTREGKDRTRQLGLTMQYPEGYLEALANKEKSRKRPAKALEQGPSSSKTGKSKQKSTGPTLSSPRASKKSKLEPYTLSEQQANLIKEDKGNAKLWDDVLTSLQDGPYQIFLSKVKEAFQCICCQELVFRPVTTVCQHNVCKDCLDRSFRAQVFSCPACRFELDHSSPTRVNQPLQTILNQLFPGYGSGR

Substance: GST-mDPPA3 wild-type (from UniProt Q8QZY3 1-150) (natural protein)
- pKd: 6.36
